Data taken from article PMC8385639, “Fluorescence Correlation Spectroscopy Reveals Survival Motor Neuron Oligomerization but No Active Transport in Motor Axons of a Zebrafish Model for Spinal Muscular Atrophy” (Frontiers in Cell and Developmental Biology, 2021).

B1: His6-MBP-zfSMNwt (natural protein, zebrafish, UniProt Q9W6S8 1-281, looked up)
chain: MANGAEDVVFCRGTGQSDDSDIWDDTALIKAYDKAVASFKNALKGEDGATPQENDNPGKKRKNNKKNKSRKRCNAAPDKEWQVGDSCYAFWSEDGNLYTATITSVDQEKGTCVVFYTDYGNEEEQNLSDLLTEPPDMDEDALKTANVKETESSTEESDRSFTPQKSGHAKHKSKSNFPMGPPSWFPSFPPGPPPPPPHFKKMDGRRGEGPGPSFPGWPPMIPLGPPMIPPPPPMSPDFGEDDEALGSMLISWYMSGYHTGYYMGLRQGRKEAAASKKSHRK
notes: Survival motor neuron protein (Smn), zebrafish, wild type; The order of the tags is read from the printed name only; also called zebrafish Smn; zebrafish-Smn only control; source: E. coli BL21(DE3), purified (NiNTA); not shown: His6, N-terminal, kept; MBP, N-terminal, kept

What was measured:
[1] = target: the molecule itself; assay: SEC; Superdex 200 Increase 10/300 GL; purified fusion proteins run alone and as a mixture; fractions analysed by SDS-PAGE with Coomassie staining
His6-MBP-zfSMNwt = target: B1; assay: as above; conditions: both partners purified

Binder	binding result [1]	binding result (His6-MBP-zfSMNwt)
B1	binds	–
DSLDDADALGSMLISWYMSGYHTGYYMGFRQNQ (domain or fragment, human, UniProt Q16637 252-284, looked up, The N-terminal place of GST is read from the printed name only; also called human SMN; human-SMN only control; source: E. coli BL21(DE3), purified (NiNTA); not shown: GST, N-terminal, kept) [GST-hSMN (252-284)]	binds	binds
